# Reference: patent publication US9403882B2, “Sulfation of Wnt pathway proteins” (priority 2010, dated 2016)
# No end group written: not given here. *: point of attachment. sulfate = O=S(=O)(O)*
# Tests used:
# [1] = biological target: T1, sclerostin-LRP binding (Homo sapiens, UniProt O75197); assay: Sclerostin binding to LRP in the presence of peptides; conditions: 667 μM peptide concentration; FIG. 12
# T1 construct: expresses LRP5 extracellular domains 1 and 2 fused to alkaline phosphatase; made in house; host or cells: LRP5R1/2-AP from transfected 293T cells (conditioned medium)
# T1 sequence (O75197 32-641 limits assumed): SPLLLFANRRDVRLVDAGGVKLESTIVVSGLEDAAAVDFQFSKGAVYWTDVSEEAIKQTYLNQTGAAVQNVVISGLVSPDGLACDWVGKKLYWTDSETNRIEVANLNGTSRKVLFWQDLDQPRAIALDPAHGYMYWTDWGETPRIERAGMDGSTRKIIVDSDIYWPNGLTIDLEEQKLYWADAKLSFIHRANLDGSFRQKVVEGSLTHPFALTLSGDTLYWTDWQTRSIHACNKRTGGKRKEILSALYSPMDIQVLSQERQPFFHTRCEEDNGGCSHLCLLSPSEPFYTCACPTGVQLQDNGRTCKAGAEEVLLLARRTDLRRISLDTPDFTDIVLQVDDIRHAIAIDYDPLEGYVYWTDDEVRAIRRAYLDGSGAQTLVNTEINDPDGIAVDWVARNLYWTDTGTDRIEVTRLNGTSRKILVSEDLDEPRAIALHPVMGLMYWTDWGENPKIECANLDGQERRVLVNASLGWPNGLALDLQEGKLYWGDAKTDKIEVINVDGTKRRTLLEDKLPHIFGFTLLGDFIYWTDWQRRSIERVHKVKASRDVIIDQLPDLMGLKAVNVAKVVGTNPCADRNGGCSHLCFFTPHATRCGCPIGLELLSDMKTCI
# Protocol: Various amounts of unmodified sclerostin or the in vitro treated sclerostin from Example 1 were diluted into 80 μl of TBST buffer and added to individual wells of 96 well plates. After overnight incubation, unbound proteins were removed after which point the coated plates were blocked with 3% nonfat milk in PBS. The plates were than decanted and 0.5×LRP5R1/2AP conditioned medium was added to the plates. After 2.5 hours, the conditioned medium was removed and the 96 well plates were washed five times for three minutes with TBST. The alkaline phosphatase activity in each well was then determined using the Tropix luminescence assay kit (Invitrogen, Carlsbad, Calif.).
# Sclerostin binding to LRP in the presence or absence of the sulfated or unsulfated peptides, at 667 μM peptide concentration, was tested using the binding assay essentially as described in Example 3.
# [2] = biological target: T2, LRP5 extracellular domains 1 and 2 fused to alkaline phosphatase (Homo sapiens, UniProt O75197); assay: Binding of AlkPhos-LRP5 to plate-coated sclerostin; conditions: TPST-1-treated vs untreated recombinant sclerostin; FIG. 2
# T2 construct: expresses LRP5 extracellular domains 1 and 2 fused to alkaline phosphatase; made in house; host or cells: 293T cells, transfected; concentrated conditioned medium
# T2 sequence (O75197 32-641 limits assumed): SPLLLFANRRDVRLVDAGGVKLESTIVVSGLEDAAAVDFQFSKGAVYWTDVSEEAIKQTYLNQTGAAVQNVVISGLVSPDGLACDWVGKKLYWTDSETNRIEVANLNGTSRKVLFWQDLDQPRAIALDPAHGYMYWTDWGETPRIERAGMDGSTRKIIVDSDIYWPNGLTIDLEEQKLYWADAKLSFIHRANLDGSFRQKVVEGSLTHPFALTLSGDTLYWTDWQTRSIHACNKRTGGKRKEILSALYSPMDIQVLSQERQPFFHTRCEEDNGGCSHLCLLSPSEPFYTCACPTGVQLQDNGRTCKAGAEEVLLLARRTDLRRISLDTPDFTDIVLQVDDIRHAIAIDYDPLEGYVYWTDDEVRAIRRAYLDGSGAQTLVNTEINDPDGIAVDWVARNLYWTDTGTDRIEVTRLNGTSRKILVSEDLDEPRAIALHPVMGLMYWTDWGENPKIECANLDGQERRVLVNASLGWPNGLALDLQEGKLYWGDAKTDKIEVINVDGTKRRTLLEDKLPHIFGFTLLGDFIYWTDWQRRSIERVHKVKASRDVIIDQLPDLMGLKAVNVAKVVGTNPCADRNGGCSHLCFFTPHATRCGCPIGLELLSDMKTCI
# [3] = system: Wnt induced alkaline phosphatase activity; assay: Wnt 3a induced alkaline phosphatase activity in 10T1/2 cells; format: cell-based; conditions: 24 hours, vs untreated sclerostin, highest level of sclerostin input, FIG. 3
# Protocol: Growing cultures of 10T1/2 cells were washed with PBS and trypsinized for 5 minutes. Cells were resuspended at a concentration of 6×10^5 cells/ml and 10 μl were seeded into individual wells of a Costar 96 well plate (Corning, Inc.). Wnt 3a and either the untreated sclerostin or the sclerostin from Example 1 were added and the plates were incubated at 37° C. for 24 hours. 50 μl of universal lysis buffer (from the Luciferase Reporter Gene Assay, Roche Applied Science, Indianapolis, Ind.) was added to each well at ambient temperature for 5 minutes. Detection of alkaline phosphatase was measured by the addition of 50 μl of ready-to-use CPSD with Sapphire Enhancer (Applied Biosystems) followed by an incubation at ambient temperature for 25 minutes.
# [4] = system: Wnt signaling; assay: Cell-based luciferase assay using Wnt reporter cells (Dkk1 inhibition of Wnt signaling); conditions: Dkk1 from insect cells untreated (sulfated) vs chlorate treated (unsulfated); FIG. 10
# Protocol: These four Dkk1 preparations were used at three concentrations in a cell-based luciferase assay using the Wnt reporter cells essentially as described in U.S. Patent Publication 2006/0198791 to determine the effect of sulfation on the ability of Dkk1 to inhibit Wnt signaling. Briefly, the cells were seeded in 96-well microtiter plates at 2×10^5 cells per well, in 50 μl assay medium. After incubation at 37° C. in a 5% CO2 atmosphere overnight, 50 μl DMEM was added to each well. Wnt3a was then added, to a final concentration of 300 ng/ml, followed by addition of either buffer, sulfated Dkk1 or unsulfated Dkk1, where Dkk1 was added to a final concentration of 0.4, 0.133 or 0.044 μg/ml. The plates were then incubated at 37° C. in a 5% CO2 atmosphere for 6 h. Luciferase substrate was then added and chemiluminescence was measured. Each treatment was performed in duplicate.
Molecule,inhibition of sclerostin-LRP binding [1],further results
H-C-R-S-A-K-A-N-Q-A-E-L-E-N-A-Y-OH (H-HCRSAKANQAELENAY-OH) [PRN8831],inhibition of sclerostin-LRP binding,
"PRN8830: sulfated P43, sequence of sclerostin amino acids 37-52 where 43 is the sulfation site (HPELGEY(sulfate)PEPPPELEC-NH2)",inhibition of sclerostin-LRP binding,
"mouse versions of sclerostin: mouse sclerostin, TPST-treated compared with untreated",,amount of AlkPhos-LRP5 bound to the plates [2]: essentially similar results
H-P-E-L-G-E-Y-P-E-P-P-P-E-L-E-C-NH2 (H-HPELGEYPEPPPELEC-NH2) [PRN8829],inhibition of sclerostin-LRP binding,
sclerostin treated in vitro with TPST: human sclerostin (R&D Systems) sulfated in vitro with human TPST1 and PAPS,,blockage of Wnt induced alkaline phosphatase activity [3]: significantly (P=0.006) more efficient blockage of Wnt induced alkaline phosphate activity
"sulfated Dkk1: Dkk1 prepared in insect cells untreated with chlorate (protein, UniProt O94907 32-266, looked up, sulfated, insect cell-expressed, Dkk1 prepared in insect cells untreated with chlorate) Dickkopf-related protein 1: TLNSVLNSNAIKNLPPPLGGAAGHPGSAVSAAPGILYPGGNKYQTIDNYQPYPCAEDEECGTDEYCASPTRGGDAGVQICLACRKRRKRCMRHAMCCPGNYCKNGICVSSDQNHFRGEIEETITESFGNDHSTLDGYSRRTTLSSKMYHTKGQEGSVCLRSSDCASGLCCARHFWSKICKPVLKEGQVCTKHRRKGSHGLEIFQRCYCGEGLSCRIQKDHHQASNSSRLHTCQRH",,inhibition of Wnt activity [4]: greater inhibition of Wnt activity
